One data set concerns the target CTF18-RFC;p261Nexo- (human;human, UniProt Q8WVB6;Q9BVC3;P0CG13;P35250;P40938;P35249;P40937;Q07864 …, |D275A). Description: photo-crosslinking.
Another data set concerns the target CTF18-RFC (human, UniProt Q8WVB6;Q9BVC3;P0CG13;P35250;P40938;P35249;P40937 …). Nature of the data set: EMSA. (In general: A gel shift assay detects complexes by their altered migration in electrophoresis.)
The target in the next data set is CTF18-RFC;PCNA (human;human, UniProt Q8WVB6;Q9BVC3;P0CG13;P35250;P40938;P35249;P40937;P12004 …, |). Nature of the data set: EMSA.

B1: APB-Junction (dsDNA)
DNA 1: TGAGGTTCAGCAAGGTGATGCTTTAGATTTTTC
DNA 2: AGGCGGTCAGTATTAACACCGCCTGCAACAGTGCCACGCTGAGAGCCAGCAGCAAATGAAAAATCTAAAGCATCACCTTGCTGAACCTCA
modifications: APB on phosphorothioate dCMP at primer nt 33
B1: the binding signal with CTF18-RFC;p261Nexo- is ~3 fold p261Nexo- crosslink vs alone (CTF18 5-fold).

B2: dd-Junction (dsDNA)
DNA 1: TGAGGTTCAGCAAGGTGATGCTTTAGATTTTTCA
DNA 2: B1 DNA 2
modifications: 3' ddAMP (primer nt 34); APB on S-dCMP at primer nt 33
As to B2, the binding result with CTF18-RFC and with CTF18-RFC;PCNA was “no binding” in each case.
